The source of these data is the nanobody polyreactivity screen of Harvey et al. (2022).

The nature of the data set: yeast display, Sf9 membrane polyspecificity reagent, FACS + sequencing; frameworks hold sequencing errors. The method in brief: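 Galactose-induced (36–48 hours) yeast carrying a synthetic nanobody display library were exposed to 10% biotinylated, detergent-solubilized Sf9 membrane reagent at 4 °C for 1 hour. FACS followed streptavidin microbead enrichment, using low and high (top ~1%) gates for expression (anti-HA) and reagent binding (streptavidin). Colony PCR, MiSeq 2 × 250 sequencing and CDR-length filtering followed. Labels for polyreactivity reflect the gate of origin.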
As to “QVQLVESGGGLVQAGGSLRLSCAASGSTFKIYARGWYRQAPGKERELVARITGRGGSTYYADSVKGRFTISRDNAKNTVYLQMNSLKPEDTAVYYCAARVYTYYYDLHKRYYWGQGTQVTVSS”, the “polyreactivity (PSR sort gate)” value is given as “high polyreactivity”. As for “QVQLVESGGGLVQAGGSLRLSCAASGSTFKKYVMGWYRQAPGKERELVAAISGRGGSTYYADSVKGRFTISRDNAKNTVYLQMNSLKPEDTAVYYCNARKQTARFDSWGQGTQVTVSS”, the entry is “high polyreactivity”. For the sequence “QVQLVESGGGLVQAGGSLRLSCAASGSTFKNYAMGWYRQAPGKERELVAAINVSGARTYYADSVKGRFTISRDNAKNTVYLQMNSLKPEDTAVYYCAAYYSGVGYDYWGQGTQVTVSS”, the “polyreactivity (PSR sort gate)” value was “high polyreactivity”.

As to “QVQLVESGGGLVQAGGSLRLSCAASGSTFKRNAMGWSRQAPGKEWELVAAITFSGATTYYADSVKGRFTISRDNAKNTVYLQMNSLKPEDTAVYYCATKAYTTGRYYWGQGTQVTVSS”, the “polyreactivity (PSR sort gate)” value is recorded as “high polyreactivity”. Under “QVQLVESGGGLVQAGGSLRLSCAASGSTFKRNAMGWYRPAPGKERELVAAITFSGATTYYADSVKGRFTISRDNAKNTVYLQMNSLKPEDTAVYYCATKAYTTGRYYWGQGTQVTVSS” stands “high polyreactivity”; under “QVQLVESGGGLVQAGGSLRLSCAASGSTFKRNAMGWYRPATGKERELVATITRRGGSTYADSVKGRFTISRDNAKNTVYLQMNSLKPEDTAVYYCNADSRPLSTYYYWGQGTQVTVSS”, “low polyreactivity”; under “QVQLVESGGGLVQAGGSLRLSCAASGSTFKRNAMGWYRQAPGKERELVAAITSGGSTYYADSVKGRFTISRDNAKNTVYLQMNSLKPEDTAVYYCNKVRGAFYSHLFDYWGQGTQVTVSS”, “high polyreactivity”. Under “QVQLVESGGGLVQAGGSLRLSCAASGSTFKRNAMGWYRQATGKERELVAAISTNGGRTYYADSVKGRFTISRDNAKNTVYLQMNSLKPEDTAVYYCAVDLFDGVTKLNYDYWGQGTQVTVSS” stands “low polyreactivity”; under “QVQLVESGGGLVQAGGSLRLSCAASGSTFKRNTMGWYRQAPGKERELVAAISRSGGYTYYADSVKGRFTISRDNAKNTVYLQMNSLNPEDTAVYYCNANVSSYVGSRSYGLSPYDYWGQGTQVTVSS”, “high polyreactivity”; under “QVQLVESGGGLVQAGGSLRLSCAASGSTFKSYAMGWYRQAPGKERELVAAISRSGGRTYYADSVKGRFTISRDNAKNTVYLQMNSLKPEDTAVYYCATGVKREGDYWGQGTQVTVSS”, “high polyreactivity”.

As to “QVQLVESGGGLVQAGGSLRLSCAASGSTFKSYAMGWYRQAPGKERELVAAITHRGSTYYADSVKGRFTTSRDNAKNTVYLQMNSLKPEDTAVYYCNVRRIGNGRRVDYWGQGTQVTVSS”, the “polyreactivity (PSR sort gate)” value is listed as “high polyreactivity”. As for “QVQLVESGGGLVQAGGSLRLSCAASGSTFKSYAMGWYRQEPGKERELVAAITVSGGSTYYADSVKGRFTISRDNAKNTVYLQMNSLKPEDTAVYYCAADSVLLKDTGYDYWGQGTQVTVSS”, the entry is “low polyreactivity”. Turning to “QVQLVESGGGLVQAGGSLRLSCAASGSTFKTYTMGWYRQAPGKERELVAGITSGGSTSYADSVKGRFTISRDNAKNTVYLQMNSLKPEDTAVYYCNADAYLVIYFYTVRDYGYDYWGQGTQVTVSS”, the “polyreactivity (PSR sort gate)” value is listed as “low polyreactivity”. Turning to “QVQLVESGGGLVQAGGSLRLSCAASGSTFKVYAMGWYRQAPGKERELVAAISQSGGSTYYADSVKGRFTITRDNAKNTVYFQMKSLKPEDTAVYYCAVRTYVYHWSFSSLPYDYWGQGTQVTVSS”, the “polyreactivity (PSR sort gate)” value was “high polyreactivity”. As for “QVQLVESGGGLVQAGGSLRLSCAASGSTFKVYAMGWYRQAPGKERELVAVISGGGRTNYADSVKGRFTISRDNAKNTVYLQMNSLNPEDTAVYYSAALGPYGSARRKYGYWGQGTQVTVSS”, the entry is “high polyreactivity”. Under “QVQLVESGGGLVQAGGSLRLSCAASGSTFKWYAMGWYRQAPGKERELVAAISQSGSRTYYADSVKGRFTISRDNAKNTVYLQMNSLKPEDTAVYYCNARRYIYNYDYWGQGTQVTVSS” stands “high polyreactivity”; under “QVQLVESGGGLVQAGGSLRLSCAASGSTFKYYAMGWSRQAPGKERELVAAISYRGGRTYYADSVKGRFTISRDNAKNTVYLQMNSLKPEDTAVYYCPAVKPYYIQYQGSAGYDYWGQGTQVTVSS”, “high polyreactivity”. For the sequence “QVQLVESGGGLVQAGGSLRLSCAASGSTFKYYAMGWYRQAPGKERELVAAITWRGGSTYYADSVKGRFTISRDNAKNTVYLQMNSLKPEDTAVYYCNRAYLYAYRSWWETYLRGDYWGQGTQVTVSS”, the “polyreactivity (PSR sort gate)” value is “high polyreactivity”.

As to “QVQLVESGGGLVQAGGSLRLSCAASGSTFKYYAMGWYRQAPGKERELVARISSGGRTYYADSVKGRFTISRDNAKNTVYLQMNSLKPEDTAVYYCNAQGYTTYRGDYWGQGTQVTVSS”, the “polyreactivity (PSR sort gate)” value was “high polyreactivity”. As for “QVQLVESGGGLVQAGGSLRLSCAASGSTFKYYVMGWYRQAPGKEREFVAAITLRGGRTYYADSVKGRFTISRDNAKNTVYLQMNSLKPEDTAVYYCNAAYYLGWAHGTGRVEYDYWGQGTQVTVSS”, the entry is “high polyreactivity”. Take “QVQLVESGGGLVQAGGSLRLSCAASGSTFLANAMGWYRQAPGKERELVATISSGGSTNYADSVKGRFTISRDNAKNTVYLQMNSLKPEDTAVYYCAAEYWYAWQEYGYWGQGTQVTVSS”: the “polyreactivity (PSR sort gate)” value is recorded as “low polyreactivity”. In the case of “QVQLVESGGGLVQAGGSLRLSCAASGSTFLANAMGWYRQAPGKEWELVATISSGGSTNYADSVKGRFTISRDNAKNTVYLQMNSLKPEDTAVYYCAAEYWYAWQEYGYWGQGTQVTVSS”, the “polyreactivity (PSR sort gate)” value is listed as “low polyreactivity”. Under “QVQLVESGGGLVQAGGSLRLSCAASGSTFLDNAMGWFRQAPGKERELVAAITSGDSTKYADSVKGRFTISRDNEKNTVYLQMNSLKPEDTAVYYCAADVGRNKMDYWGQGTQVTVSS” stands “low polyreactivity”; under “QVQLVESGGGLVQAGGSLRLSCAASGSTFLENAMGWYRQAPGKEREFVAAISKSGGSTSYADSVKGRFTISRDNAKNTVYLQMNSLKPEDTAVYYCATRRSRAYDYWGQGTQVTVSS”, “high polyreactivity”; under “QVQLVESGGGLVQAGGSLRLSCAASGSTFLGYDMGWYRHAPGKERELVATISKSGGSTHYADSVKGRFTISRDNAKNTVYLQMNSLKPEDTAVYYCAADYYQRYYKKSGEYDYWGQGTQVTVSS”, “low polyreactivity”. Under “QVQLVESGGGLVQAGGSLRLSCAASGSTFLGYVMGWYRQAPGKEREFVAAITWSVGSTYYADSVKGRFTISRDNAKNTVYLQMNSLKPEDTAVYYCAVRWVYANIYPDMEYWGQGTKVTVSS” stands “low polyreactivity”; under “QVQLVESGGGLVQAGGSLRLSCAASGSTFLHYAMGWYRQAPGKERELVAAISRRGGRTYYADSVKGRFTISRDNAKNTVYLQMNSLKPEDTAVYYCAVDGIRDGYWIFYYWGQGTQVTVSS”, “low polyreactivity”; under “QVQLVESGGGLVQAGGSLRLSCAASGSTFLLYAMGWYRPAPGKERELVATISWGGDGTYYADSVKGRFTISRDNAKNTVYLHLNSLKPEDSAVYYCAAYSYFGYYWDGQLPYRLPYDYWGQGTQVTLSS”, “low polyreactivity”. In the case of “QVQLVESGGGLVQAGGSLRLSCAASGSTFLNYALGWYRQAPGKERELVASISYSAGSTYYADSVKGRFTISRDNAKNTVYLQMNSLKPEDTAVYYCAARLARAGYWRRNYYYWGQGTQVTVSS”, the “polyreactivity (PSR sort gate)” value is given as “high polyreactivity”. For the sequence “QVQLVESGGGLVQAGGSLRLSCAASGSTFLNYAMGWYRQAPGKERELVAAISGSTTRTYYADSVKGRFTISRDNAKNTVYLQMNSLKPEDTAVYYCARYSLYTGYRRYPLDYDYWGQGTQVTVSS”, the “polyreactivity (PSR sort gate)” value is listed as “high polyreactivity”. Under “QVQLVESGGGLVQAGGSLRLSCAASGSTFLNYAMGWYRQAPGKERELVAAITGSGGRTYYADSVKGRFTISRDNAKNTVYLQMNSLKPEDTAVYYCAASATYDPHDYWGQGTQVTVSS” stands “high polyreactivity”; under “QVQLVESGGGLVQAGGSLRLSCAASGSTFLPNDMGWYRQAPGKERELVAAISWSDGSTYYADSVKGRFTISRDNAKNTVYLQMNSLKPEDTAVYYCNTVGFDYYYYEYDYWGQGTQVTVSS”, “low polyreactivity”; under “QVQLVESGGGLVQAGGSLRLSCAASGSTFLPYAMGWYRQAPGKERELVAAIRWSVGSTYYADSVKGRFTISRDNAKNTVYLQMNSLKPEDTAVYYCAVTYGRGYEYWGQGTQVTVSS”, “high polyreactivity”. Under “QVQLVESGGGLVQAGGSLRLSCAASGSTFLRNAMGWYRQAPGKERQLVAAISRRGGSTYYADSVKGRFTISRDNAKNTVYLQMNSLKPEDTSVYYCAKDYRSPISGDYWGQGTQVTVSS” stands “high polyreactivity”; under “QVQLVESGGGLVQAGGSLRLSCAASGSTFLRYAMGWYREAPGTERELVAAISVSGGSTYYADSVKGRFTISRDNAKNTVYLQMNSLKPEYTAVYYCIAVTKFHRRYNYWGQGTQVTVSS”, “high polyreactivity”. With “QVQLVESGGGLVQAGGSLRLSCAASGSTFLRYAMGWYRQAPGKERELVAAISSGTSTNYADSVKGRFTISRDNAKNTVYLQMNSLKPEDTAVYYCAAVYAWLFWYDSWGQGTQVTVSS”, the “polyreactivity (PSR sort gate)” value is given as “low polyreactivity”. Under “QVQLVESGGGLVQAGGSLRLSCAASGSTFLRYAMGWYRQAPGKERELVATISRSDDGTYYADSVKGRFTISRDNAKNTVYLQMNSLKPEDTAVYYCAARSWYLYYYWGQGTQVTVSS” stands “low polyreactivity”.

Turning to “QVQLVESGGGLVQAGGSLRLSCAASGSTFLRYAMGWYRQAPGKERELVATITSGGSTYADSVKGRFTISRDNAKNTVYLQMNSLKPEDTAVYYCAARANTKKPYYYWGQGTQVTVSS”, the “polyreactivity (PSR sort gate)” value was “high polyreactivity”. Under “QVQLVESGGGLVQAGGSLRLSCAASGSTFLRYDMGWYRQAPGKDRELVAAINWSGGGTSYADSVKGRFTISRDNAKNTVYLQMNSLKPEDTEVYYCAAYFRYSYYWSEYWGQGTQVTVSS” stands “high polyreactivity”; under “QVQLVESGGGLVQAGGSLRLSCAASGSTFLRYTMGWYRQAPGTERELVAAISPSAGSTYYADSVKGRFTISRDNAKNSVYLQMNSLTPEDTAVYYCAAKRGSVSRPDYGANDESWGQGTQVTVSS”, “high polyreactivity”; under “QVQLVESGGGLVQAGGSLRLSCAASGSTFLSNAMGWYRPAPGKERELVAGIDYNDGSTYYADSVKGRFTISRDNAKNTVYLQMNSLKPEDTAVYYCAARWVFRRYVIGMDYWGQGTQVTVSS”, “low polyreactivity”.
